# Assay results: patent US20250326817A1 (LA JOLLA INSTITUTE FOR IMMUNOLOGY, published 2025)
# Key:
# [1] = molecular target: T1, mouse HVEM (Q39-Q206), wild type, fused to human IgG1 and a hexa-His tag (mouse; human, UniProt Q80WM9 39-206); assay: Octet bio-layer interferometry, mHVEM-hIgG1 on the sensor, mBTLA in solution
# T1 construct: From Expi293 cells; also called mHVEM-hIgG1; mHVEMWT; not shown: human IgG1
# Text: (§1) Error bars represent results from at least triplicates. […] Ligands BTLA, CD160 and LIGHT are modeled based on the HVEM structures and are shown as labeled surfaces.
# (§2) The results were exported and then analyzed using Prism 5 (GraphPad Software). Final response curves were generated after subtracting the responses of the control groups.
# [2] = molecular target: T1, mouse HVEM (Q39-Q206), wild type, fused …; assay: Octet bio-layer interferometry, mHVEM-hIgG1 on the sensor, BTLA in solution
# Text: as §2
# [3] = molecular target: T1, mouse HVEM (Q39-Q206), wild type, fused …; assay: Octet bio-layer interferometry, mHVEM-hIgG1 on the sensor, mCD160 in solution
# Text: as §1, §2
# [4] = molecular target: T1, mouse HVEM (Q39-Q206), wild type, fused …; assay: Octet bio-layer interferometry, mHVEM-hIgG1 on the sensor, CD160 in solution
# Text: as §2
Binder,Kd [1],Kd [2],Kd [3],Kd [4]
"mouse BTLA, soluble protein (analyte of the Octet assay) (receptor, UniProt Q7TSA3 30-183, looked up, The construct is not described; also called mBTLA; mBTLA-penta-His-tag) EKATKRNDEECPVQLTITRNSKQSARTGELFKIQCPVKYCVHRPNVTWCKHNGTICVPLEVSPQLYTSWEENQSVPVFVLHFKPIHLSDNGSYSCSTNFNSQVINSHSVTIHVRERTQNSSEHPLITVSDIPDATNASGPSTMEERPGRTWLLY",1.1 µM,1.1 µM,–,–
"mouse CD160 residues I30-H154 with C-terminal HHHHHHGGGGSGLNDIFEAQKIEWHE, refolded from E. coli inclusion bodies (receptor, biotin (mCD160-biotin in the cell staining assay; site not stated), range 30-154; also called mCD160; mCD160-biotin) IHVTSSASQKGGRLDLTCTLWHKKDEAEGLILFWCKDNPWNCSPETNLEQLRVKRDPETDGITEKSSQLVFTIEQATPSDSGTYQCCARSQKPEIYIHGHFLSVLVTGNHTEIRQRQRSHPDFSHHHHHHHGGGGSGLNDIFEAQKIEWHE",–,–,11.6 µM,11.6 µM
